In US20170266254A1 (AILERON THERAPEUTICS, published 2017):
Bridges are numbered along the chain shown (N, C = ends). [ ]: non-standard residue; d: D form. R8 = C=CCCCCCC[C@@](C)(N)C(=O)O; S5 = C=CCCC[C@](C)(N)C(=O)O

T1: C-terminally 6x Histidine-tagged Beta-Catenin (aa 134-668, 59 KD) (UniProt P35222 134-668)
T1 construct: range 134-668; Armadillo repeat region
T1 sequence: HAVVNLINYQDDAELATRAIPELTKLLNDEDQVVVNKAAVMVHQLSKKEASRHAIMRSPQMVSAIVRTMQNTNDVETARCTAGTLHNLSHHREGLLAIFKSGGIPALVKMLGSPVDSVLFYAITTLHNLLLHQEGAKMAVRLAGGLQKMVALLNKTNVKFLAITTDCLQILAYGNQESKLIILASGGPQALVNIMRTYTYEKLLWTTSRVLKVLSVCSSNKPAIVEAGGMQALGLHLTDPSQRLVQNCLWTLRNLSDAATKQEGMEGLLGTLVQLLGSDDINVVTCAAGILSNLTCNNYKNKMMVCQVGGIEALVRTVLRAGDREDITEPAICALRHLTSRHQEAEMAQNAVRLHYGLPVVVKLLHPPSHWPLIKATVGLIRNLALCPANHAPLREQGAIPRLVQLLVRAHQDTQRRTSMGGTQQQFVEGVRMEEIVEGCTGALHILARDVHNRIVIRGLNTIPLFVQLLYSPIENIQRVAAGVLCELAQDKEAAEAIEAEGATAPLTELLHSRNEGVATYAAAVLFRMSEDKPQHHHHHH


Target: T1, C-terminally 6x Histidine-tagged …
Assay: competitive fluorescence polarization, FAM-labelled linear probe as competitor, His-tagged beta-catenin 134-668
In short: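 FP competition in 25 mM Tris-HCl pH 7.5, 200 mM NaCl, 5 mM CHAPS, 2 mM DTT at room temperature. Competitor peptides at 40–0.7 μM 2× working range, constant DMSO. Probe (benchmark peptide with N-terminal FAM via β-Ala spacer) from 25 nM 10× stock. Read after 3 h in the dark, ex 485/em 528 nm.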

Binder | IC50 [µM]
Ac-RDLANVKS[S5]LVN[S5]S-NH2 (staple 9-13; SMILES CC(=O)N[C@@H](CCCNC(=N)N)C(=O)N[C@@H](CC(=O)O)C(=O)N[C@@H](CC(C)C)C(=O)N[C@@H](C)C(=O)N[C@@H](CC(N)=O)C(=O)N[C@H](C(=O)N[C@@H](CCCCN)C(=O)N[C@@H](CO)C(=O)N[C@@]1(C)CCCC=CCCC[C@@](C)(C(=O)N[C@@H](CO)C(N)=O)NC(=O)[C@H](CC(N)=O)NC(=O)[C@H](C(C)C)NC(=O)[C@H](CC(C)C)NC1=O)C(C)C) [SP8] | ≥ 100
SP51 (not fully specified; N-terminal acetyl; C-terminal amide; PEG4 = NH-(PEG)4-COOH (19 atoms) linker between the two peptide parts; $ = (S)-alpha-(2'-pentenyl)alanine at positions 11 and 15 of the first part and at positions 2 and 6 of the second part, each pair joined by an all-carbon crosslinker with one double bond, The two peptide parts are joined by a non-peptide PEG4 spacer, not by a peptide bond) peptide: LGANDELISFADEGAQEEKSS AARDLANVKSSLV | 0.603
Ac-SA[S5]RDL[S5]NVKSSLV-NH2 (staple 3-7; SMILES CC(=O)N[C@@H](CO)C(=O)N[C@@H](C)C(=O)N[C@@]1(C)CCCC=CCCC[C@@](C)(C(=O)N[C@@H](CC(N)=O)C(=O)N[C@H](C(=O)N[C@@H](CCCCN)C(=O)N[C@@H](CO)C(=O)N[C@@H](CO)C(=O)N[C@@H](CC(C)C)C(=O)N[C@H](C(N)=O)C(C)C)C(C)C)NC(=O)[C@H](CC(C)C)NC(=O)[C@H](CC(=O)O)NC(=O)[C@H](CCCNC(=N)N)NC1=O, also called Ac-SA$RDL$NVKSSLV-NH2) [SP43] | ≥ 100
Ac-RDLA[S5]VKS[S5]LVNQS-NH2 (staple 5-9; SMILES CC(=O)N[C@@H](CCCNC(=N)N)C(=O)N[C@@H](CC(=O)O)C(=O)N[C@@H](CC(C)C)C(=O)N[C@@H](C)C(=O)N[C@@]1(C)CCCC=CCCC[C@@](C)(C(=O)N[C@@H](CC(C)C)C(=O)N[C@H](C(=O)N[C@@H](CC(N)=O)C(=O)N[C@@H](CCC(N)=O)C(=O)N[C@@H](CO)C(N)=O)C(C)C)NC(=O)[C@H](CO)NC(=O)[C@H](CCCCN)NC(=O)[C@H](C(C)C)NC1=O, also called Ac-RDLA$VKS$LVNQS-NH2) [SP6] | ≥ 100
Ac-RDLA[R8]VKSSLV[S5]QS-NH2 (staple 5-12; SMILES CC(=O)N[C@@H](CCCNC(=N)N)C(=O)N[C@@H](CC(=O)O)C(=O)N[C@@H](CC(C)C)C(=O)N[C@@H](C)C(=O)N[C@]1(C)CCCCCCC=CCCC[C@@](C)(C(=O)N[C@@H](CCC(N)=O)C(=O)N[C@@H](CO)C(N)=O)NC(=O)[C@H](C(C)C)NC(=O)[C@H](CC(C)C)NC(=O)[C@H](CO)NC(=O)[C@H](CO)NC(=O)[C@H](CCCCN)NC(=O)[C@H](C(C)C)NC1=O, also called Ac-RDLA$r8VKSSLV$QS-NH2) [SP7] | ≥ 100
Ac-SA[S5]RDL[S5]NVKSSLV-NH2 (staple 3-7; SMILES CC(=O)N[C@@H](CO)C(=O)N[C@@H](C)C(=O)N[C@@]1(C)CCCC=CCCC[C@@](C)(C(=O)N[C@@H](CC(N)=O)C(=O)N[C@H](C(=O)N[C@@H](CCCCN)C(=O)N[C@@H](CO)C(=O)N[C@@H](CO)C(=O)N[C@@H](CC(C)C)C(=O)N[C@H](C(N)=O)C(C)C)C(C)C)NC(=O)[C@H](CC(C)C)NC(=O)[C@H](CC(=O)O)NC(=O)[C@H](CCCNC(=N)N)NC1=O, also called Ac-SA$RDL$NVKSSLV-NH2) [SP54] | ≥ 100
SP50 (not fully specified; N-terminal acetyl; C-terminal amide; PEG3 = NH-(PEG)3-COOH (16 atoms) linker between the two peptide parts; $ = (S)-alpha-(2'-pentenyl)alanine at positions 11 and 15 of the first part and at positions 2 and 6 of the second part, each pair joined by an all-carbon crosslinker with one double bond, The two peptide parts are joined by a non-peptide PEG3 spacer, not by a peptide bond) peptide: LGANDELISFADEGAQEEKSS AARDLANVKSSLV | 1.1

Continued, values first:

IC50 [µM] | Binder
≥ 100 | Ac-RNLADVKS[S5]LVN[S5]S-NH2 (staple 9-13; SMILES CC(=O)N[C@@H](CCCNC(=N)N)C(=O)N[C@@H](CC(N)=O)C(=O)N[C@@H](CC(C)C)C(=O)N[C@@H](C)C(=O)N[C@@H](CC(=O)O)C(=O)N[C@H](C(=O)N[C@@H](CCCCN)C(=O)N[C@@H](CO)C(=O)N[C@@]1(C)CCCC=CCCC[C@@](C)(C(=O)N[C@@H](CO)C(N)=O)NC(=O)[C@H](CC(N)=O)NC(=O)[C@H](C(C)C)NC(=O)[C@H](CC(C)C)NC1=O)C(C)C) [SP5]
≥ 100 | Ac-RDLA[S5]VVS[S5]LVNES-NH2 (staple 5-9; SMILES CC(=O)N[C@@H](CCCNC(=N)N)C(=O)N[C@@H](CC(=O)O)C(=O)N[C@@H](CC(C)C)C(=O)N[C@@H](C)C(=O)N[C@@]1(C)CCCC=CCCC[C@@](C)(C(=O)N[C@@H](CC(C)C)C(=O)N[C@H](C(=O)N[C@@H](CC(N)=O)C(=O)N[C@@H](CCC(=O)O)C(=O)N[C@@H](CO)C(N)=O)C(C)C)NC(=O)[C@H](CO)NC(=O)[C@H](C(C)C)NC(=O)[C@H](C(C)C)NC1=O, also called Ac-RDLA$VVS$LVNES-NH2) [SP56]
≥ 100 | Ac-SA[S5]RNL[S5]DVKSSLV-NH2 (staple 3-7; SMILES CC(=O)N[C@@H](CO)C(=O)N[C@@H](C)C(=O)N[C@@]1(C)CCCC=CCCC[C@@](C)(C(=O)N[C@@H](CC(=O)O)C(=O)N[C@H](C(=O)N[C@@H](CCCCN)C(=O)N[C@@H](CO)C(=O)N[C@@H](CO)C(=O)N[C@@H](CC(C)C)C(=O)N[C@H](C(N)=O)C(C)C)C(C)C)NC(=O)[C@H](CC(C)C)NC(=O)[C@H](CC(N)=O)NC(=O)[C@H](CCCNC(=N)N)NC1=O, also called Ac-SA$RNL$DVKSSLV-NH2) [SP55]
